{"source": "paper PMC5055751", "about": "(Nature chemical biology, 2016)", "tested_on": "mouse embryonic fibroblasts (MEFs)", "assay": "Cellular uptake of FITC-peptides by ImageXpress high-content microscopy", "conditions": "MEFs 2×10^4 cells, 0% FBS, dose varied; text 2 hours, legend 4 hr"}
{"substance": "BIM BH3_1: unmodified template peptide FITC-BIM BH3_1 (aa 146–166)", "values": [{"measurement": "TIFI versus FITC-peptide dose, result in words", "result": "linear, dose-responsive increase in TIFI"}]}
